Test results taken from publication PMC4157330, “Molecular assembly of the period-cryptochrome circadian transcriptional repressor complex” (eLife, 2014).

T1: mouse CRY2 (amino acids 1–512) (mouse, UniProt Q9R194 1-512)
T1 construct: Cryptochrome 2 (CRY2), mouse, residues 1-512, photolyase-homology region (PHR); also called CRY2-PHR; mCRY2
T1 sequence (looked up): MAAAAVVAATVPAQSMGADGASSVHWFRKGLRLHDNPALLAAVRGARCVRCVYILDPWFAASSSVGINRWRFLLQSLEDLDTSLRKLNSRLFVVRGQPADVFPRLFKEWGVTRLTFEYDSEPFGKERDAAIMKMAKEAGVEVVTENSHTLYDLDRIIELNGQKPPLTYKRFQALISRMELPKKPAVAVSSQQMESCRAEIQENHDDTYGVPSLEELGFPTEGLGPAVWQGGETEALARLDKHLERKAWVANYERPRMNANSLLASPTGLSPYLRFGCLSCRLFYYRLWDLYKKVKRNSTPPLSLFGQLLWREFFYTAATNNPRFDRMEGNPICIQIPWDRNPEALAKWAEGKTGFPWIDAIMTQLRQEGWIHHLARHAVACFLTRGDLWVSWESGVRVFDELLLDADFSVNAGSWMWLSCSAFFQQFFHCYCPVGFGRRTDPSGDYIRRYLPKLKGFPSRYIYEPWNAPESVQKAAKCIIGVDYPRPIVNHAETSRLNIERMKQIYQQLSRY

B1: murine PER2 (amino acids 1095–1215) (domain or fragment, mouse, UniProt O54943 1095-1215, looked up)
chain: SSDTSHTSKYFGSIDSSENNHKAKMIPDTEESEQFIKYVLQDPIWLLMANTDDSIMMTYQLPSRDLQAVLKEDQEKLKLLQRSQPRFTEGQRRELREVHPWVHTGGLPTAIDVTGCVYCES
notes: also called PER2-CBD
B2: GST-tagged mPER2 WT (amino acids 1095–1215) (domain or fragment, mouse, UniProt O54943 1095-1215, looked up)
chain: B1 chain
notes: also called WT PER2-CBD; GST-PER2; source: E. coli, purified

Tests used:
[1] = molecular target: T1, mouse CRY2 (amino acids 1–512); experiment: crystal structure; complex of purified CRY2 (1–512) and PER2 (1095–1215); crystals grown at 4°C, hanging drop, 100 mM HEPES pH 7.5, 200 mM NaCl, 15% PEG 3350; 2.8 Å; conditions: both partners purified
[2] = molecular target: T1, mouse CRY2 (amino acids 1–512); experiment: pull-down; GST-PER2 immobilised on glutathione beads, CRY2-PHR incubated at 4°C for 1 hr; SDS-PAGE, Coomassie stain; conditions: both partners purified

Row | Binder | binding result [1] | binding result [2]
1 | B1 | binds | 
2 | B2 |  | binds
